{"source": "patent US20240043514A1", "about": "“NOVEL METHOD FOR PRODUCING ANTIBODIES” (TSINGHUA UNIVERSITY, priority 2017, published 2024)", "assay_type_in_all_cases": "cell-based, human", "key": {"[1]": {"system": "AICDA, BLIMP-1, RAG expression", "test": "Quantitative RT-PCR of AICDA, BLIMP-1 and RAG mRNA in immunized PBMCs", "procedure": "Quantitative RT-PCR was carried out with a BioRad iCycler and the 2-(ΔΔCT) method was used to calculate relative mRNA expression levels normalized to GAPDH.\nAID is known to be involved in B cell affinity maturation by inducing hyper-mutation in antibody genes. Expression of BLIMP-1 represents the proliferation and differentiation of active B cell. To test the effect of TLR agonists on the expression of AID, mRNA levels of AICDA (that encoding AID) after treatment with the synthesized TLR7/8 agonist (500 nM), in comparison with that of CD40L (55 nM), was determined by quantitative RT-PCR. PBMCs were collected from two different donors (see FIG. 8, donor 3 and donor 4). […]\nTo test the effect of TLR7 agonist imiquimod on the expression of AICDA and BLIMP-1, mRNA levels of AICDA and BLIMP-1 after IVI in the presence of the TLR7 agonist imiquimod (500 nM), was determined by quantitative RT-PCR, in comparison with that of CD40L (FIG. 9). […]\nAICDA, RAG gene expression of the harvested cells was also measured by RT-qPCR analysis respectively. […] Data are expressed as means±SEM of triplicate independent samples (****P<0.0001, **P<0.001, by 1-way ANOVA with Sidak's multiple comparisons test)."}, "PBMCs": {"system": "PBMCs", "test": "In vitro immunization (IVI) of PBMCs, antigen-specific IgG/IgM production by ELISA", "settings": "for IgG production compared with Basic alone / IgM production compared with Basic alone: FIG. 19; for antigen specificity of antibody production (anti-OVA IgG vs anti-OVA IgM and anti-BSA IgG): basic + OVA, 14 days, FIGS. 20A-20C", "procedure": "PBMCs were washed and diluted with PIV culture medium. Cell density was adjusted to 1*10^^7 cells/ml, treateder with 0.25 mM LLME for about 20 min. Discarded supernatant, and re-suspended cell with PIV culture medium. Adjusted cell density to 9*10^^5 cells/ml. […] Cultured the tissue for 7 days at 37° C., 5% CO2. Changed half of the medium and added factor cocktail on day 7. Cultured the cells for 7-21 days at 37° C., 5% CO2. Collected the supernatant on day 7, day 14, or day 21 for analysis of antibody production by ELISA, whereas the pellets are used for testing gene expression by PCR or RT-PCR. The collected cells were also tested in ELISpot assay for FACS analysis.\nExemplary IVI steps with addition of stimulate factors: • 1. Prepared PBMCs and treat them with LLME. • 2. […] Collected the cells and plate them into 96-well plate at a density of 6*10^4/well. • 4. […] The IgG and IgM level was examined with ELISA assay.\nAfter day7 or day14 with addition of cytokines or antibody-enhancing composition and antigens, supernatants were harvested and added to antigen OVA-coated plates. After 2 hr incubation, a HRP-conjugated anti-human IgG or anti-human IgM was added, the amount of antigen-specific antibody was measured using TMB as substrate. The data represents the mean of 2 replicates; error bars represent SD. One representative data of 3 separate experiments is shown.\nPlates were coated with antigen at 5 μg/ml overnight at 4° C. and washed them in PBST (containing 0.5% Tween-20). The plates were blocked with 5% BSA before addition of cell culture supernatants and horseradish peroxidase (HRP)-conjugated detection antibodies (dilutions: 1 in 2,500 for HRP-conjugated IgG-specific antibody (Jackson) and HRP-conjugated IgM-specific antibody. TMB substrates solution was used for measurement. […]\nTo further test effects of other cytokine or molecules on antibody production, a synthesized TLR7/8 agonist (50 nM and 500 nM) was added to the IVI system in the presence of antigen OVA (2 μg/ml).\nAn exemplary cytokine, IL1β, was tested. PBMCs were incubated in vitro with OVA, basic, and either some of the known stimulating factors ICOS, CD40L, TLR7/8 agonists or IL1β (in different doses) (1.5*10^^5 cell/well, 96 well plate). After 7 or 14 days, supernatants were harvested, and IgG/IgM antibody production was measured by ELISA assay."}, "[2]": {"system": "GC like B cells within PBMCs", "test": "FACS analysis of GC like B cells (CD3-CD19+GL7+Fas+) after in vitro immunization", "procedure": "We analyzed stained cells on an […] (BD) and processed flow cytometry data with FlowJo software (Tree Star). PBMCs were collected into Snap-lock microtubes. For analysis of T cells or B cells, tubes were kept at 4° C. unless mentioned otherwise. After centrifugation, cells were washed and resuspended in PBS. For analysis of T follicular helper cells, PBMCs were stained with antibodies of CD3−FITC (BD), CD4− PerCP−Cy™5.5 (BD), CXCR5−PE/Cy7 (Biolegend), and CD45RA-PE(eBioscience), respectively. T follicular helper cells were identified with CD3^+CD4^+CXCR5^+CD45RA^−. For analysis of GC like B-cells, PBMC was stained with antibodies of CD19-PE (eBioscience), GL7− Alexa Fluor 488 (eBioscience), Fas-APC (eBioscience). GC like B-cells were defined as CD19^+GL7^+Fas^+.\nAfter FACS sorting, GC like B cells are gated as CD3^−, CD19^+, GL7^+, Fas^+ cells. Numbers within the gates represent the GC like B cells of different groups. […] The ratio of GC like B cells is about 85.25% (FIG. 5B). Similarly, the PBMCs treated with ICOS. The ratio of GC like B cells is about 90.42% (FIG. 5C).\nIn the same way, PBMCs were incubated in vitro with OVA, basic, and CCL1 (1 μg/ml). After 7 days, cells were harvested, and single cell is sorting with CD19, CD3, GL7, FAS antibody as specific markers, dead cells are excluded by staining with DAPI. GC like B cells are gated as CD3−CD19+GL7+Fas+ cells. […]"}}, "data": [{"molecule": "CC(C)Cn1cnc2c(N)nc3ccccc3c21", "note": "[imiquimod, reference compound]", "values": [{"measurement": "expression of AICDA and BLIMP-1 compared with CD40L", "setting": "[1]; OVA, basic, agonist 500 nM, FIG. 8 and FIG. 9", "value": "far superior to CD40L"}]}, {"molecule": "CXCL2: Human C-X-C motif chemokine 2", "values": [{"measurement": "IgG production compared with Basic alone", "setting": "PBMCs; in vitro for 14 days, OVA", "value": "better than Basic alone"}]}, {"molecule": "CXCL5: Human C-X-C motif chemokine 5", "values": [{"measurement": "IgG production compared with known stimulating factors", "setting": "PBMCs; CXCL5 20 ng/ml, in vitro for 14 days", "value": "inferior to TLR7/8 agonist but better than ICOS and CD40L"}, {"measurement": "antigen specificity of antibody production (anti-OVA IgG vs anti-OVA IgM and anti-BSA IgG)", "setting": "PBMCs", "value": "similarly stimulate the activation of OVA-specific B cells"}, {"measurement": "IgG production, dose relation", "setting": "PBMCs; in vitro for 14 days, OVA, basic, FIG. 18", "value": "dose-dependent"}]}, {"molecule": "IL1β: Human interleukin-1 beta, adipose tissue-derived secretory protein", "values": [{"measurement": "antigen specificity of antibody production (anti-OVA IgG vs anti-OVA IgM and anti-BSA IgG)", "setting": "PBMCs", "value": "promotes generation of anti-OVA IgG in a high level"}]}, {"molecule": "IL21: interleukin-21, cytokine; part of 'basic' medium at 50 ng/ml", "values": [{"measurement": "production of anti-TrkA antibody IgG / IgM by individual stimulants", "setting": "PBMCs; antigen TrkA, individual stimulants, day 7, IL21 50 ng/ml", "value": "stimulated the production of antibody IgG but not IgM"}]}, {"molecule": "CXCL16: Mouse chemokine (C-X-C motif) ligand 16 (protein, UniProt Q8BSU2 27-246, looked up) C-X-C motif chemokine 16: NQGSVAGSCSCDRTISSGTQIPQGTLDHIRKYLKAFHRCPFFIRFQLQSKSVCGGSQDQWVRELVDCFERKECGTGHGKSFHHQKHLPQASTQTPEAAEGTPSDTSTPAHSQSTQHSTLPSGALSLNKEHTQPWEMTTLPSGYGLEARPEAEANEKQQDDRQQEAPGAGASTPAWVPVLSLLAIVFFLTAAMAYVLCNRRATQQNSAGLQLWYTPVEPRP", "values": [{"measurement": "IgG production compared with Basic alone", "setting": "PBMCs; in vitro for 14 days, OVA", "value": "better than Basic alone"}, {"measurement": "IgM production compared with Basic alone", "setting": "PBMCs; in vitro for 14 days, OVA", "value": "better than Basic alone"}]}, {"molecule": "CD40L: CD154, CD40 Ligand protein (protein, UniProt P29965 113-261, looked up) CD40 ligand, soluble form: MQKGDQNPQIAAHVISEASSKTTSVLQWAEKGYYTMSNNLVTLENGKQLTVKRQGLYYIYAQVTFCSNREASSQAPFIASLCLKSPGRFERILLRAANTHSSAKPCGQQSIHLGGVFELQPGASVFVNVTDPSQVSHGTGFTSFGLLKL", "values": [{"measurement": "regulation of IgG and IgM responses with dose", "setting": "PBMCs; ICOS 24-100 nM, CD40L 10-55 nM, TLR7/8 agonist 0.1-500 nM, OVA, IL2, IL21", "value": "dose-dependent manner"}, {"measurement": "IgG production on co-stimulation with IL2 and IL21", "setting": "PBMCs; OVA 4 ug/ml, IL2 10 ng/ml, IL21 50 ng/ml, 24 nM ICOS, 55 nM CD40L, 500 nM TLR7/8 agonist, 7 or 14 days", "value": "synergistic, complimentary effects on enhanced IgG production"}, {"measurement": "ratio of GC like B cells", "setting": "[2]; antigen OVA 2 μg/ml, IL2 10 ng/ml + IL21 50 ng/ml (basic), sorted on day 14", "value": "about 85.25%"}]}, {"molecule": "CCL1: Recombinant Human C-C motif chemokine 1 (protein, UniProt P22362 24-96, looked up) C-C motif chemokine 1: KSMQVPFSRCCFSFAEQEIPLRAILCYRNTSSICSNEGLIFKLKRGKEACALDTVGWVQRHRKMLRHCPSKRK", "values": [{"measurement": "AICDA and RAG gene expression, CCL1 plus TLR7/8 and basic vs TLR7/8 and basic only", "setting": "[1]; 7 days, RT-qPCR, FIGS. 25B-25C", "value": "increased expression level of AICDA and RAG genes"}, {"measurement": "antigen-specific antibody production, CCL1 plus TLR7/8 agonists and basic vs TLR7/8 agonists and basic only", "setting": "PBMCs; R848 1 μg/ml, 7 days, FIG. 25A", "value": "significantly increased"}, {"measurement": "GL7+FAS+ cell ratio, CCL1 plus TLR7/8 and basic vs TLR7/8 and basic only", "setting": "[2]; 7 days, FIG. 25D", "value": "increases"}]}, {"molecule": "CXCL13: Recombinant Human chemokine (C-X-C motif) ligand 13 (protein, UniProt O43927 23-109, looked up) C-X-C motif chemokine 13: VLEVYYTSLRCRCVQESSVFIPRRFIDRIQILPRGNGCPRKEIIVWKKNKSIVCVDPQAEWIQRMMEVLRKRSSSTLPVPVFKRKIP", "values": [{"measurement": "IgM production compared with Basic alone", "setting": "PBMCs; in vitro for 14 days, OVA", "value": "better than Basic alone"}]}, {"molecule": "CCL8: Human chemokine (C-C motif) ligand 8 (protein, UniProt P80075 24-99, looked up) C-C motif chemokine 8: QPDSVSIPITCCFNVINRKIPIQRLESYTRITNIQCPKEAVIFKTKRGKEVCADPKERWVRDSMKHLDQIFQNLKP", "values": [{"measurement": "IgG production compared with known stimulating factors", "setting": "PBMCs; OVA, basic, FIG. 17", "value": "inferior to TLR7/8 agonist but better than ICOS and CD40L"}, {"measurement": "antigen specificity of antibody production (anti-OVA IgG vs anti-OVA IgM and anti-BSA IgG)", "setting": "PBMCs", "value": "similarly stimulate the activation of OVA-specific B cells"}]}, {"molecule": "CCL4: Recombinant Human C-C motif chemokine 4 (protein, UniProt P13236 24-92, looked up) C-C motif chemokine 4: APMGSDPPTACCFSYTARKLPRNFVVDYYETSSLCSQPAVVFQTKRSKQVCADPSESWVQEYVYDLELN", "values": [{"measurement": "IgG production compared with Basic alone", "setting": "PBMCs; in vitro for 14 days, OVA", "value": "better than Basic alone"}, {"measurement": "IgM production compared with Basic alone", "setting": "PBMCs; in vitro for 14 days, OVA", "value": "better than Basic alone"}]}, {"molecule": "IL27: Recombinant Human Interleukin 27 (protein, UniProt Q8NEV9 29-243; Q14213 21-229, looked up) Interleukin-27 subunit alpha: FPRPPGRPQLSLQELRREFTVSLHLARKLLSEVRGQAHRFAESHLPGVNLYLLPLGEQLPDVSLTFQAWRRLSDPERLCFISTTLQPFHALLGGLGTQGRWTNMERMQLWAMRLDLRDLQRHLRFQVLAAGFNLPEEEEEEEEEEEEERKGLLPGALGSALQGPAQVSWPQLLSTYRLLHSLELVLSRAVRELLLLSKAGHSVWPLGFPTLSPQP Interleukin-27 subunit beta: RKGPPAALTLPRVQCRASRYPIAVDCSWTLPPAPNSTSPVSFIATYRLGMAARGHSWPCLQQTPTSTSCTITDVQLFSMAPYVLNVTAVHPWGSSSSFVPFITEHIIKPDPPEGVRLSPLAERQLQVQWEPPGSWPFPEIFSLKYWIRYKRQGAARFHRVGPIEATSFILRAVRPRARYYVQVAAQDLTDYGELSDWSLPATATMSLGK", "values": [{"measurement": "IgG production compared with Basic alone", "setting": "PBMCs; in vitro for 14 days, OVA", "value": "better than Basic alone"}, {"measurement": "IgM production compared with Basic alone", "setting": "PBMCs; in vitro for 14 days, OVA", "value": "better than Basic alone"}]}]}
